Assay results published in patent US20140056903A1 (Regeneron, published 2014).
Changes are numbered by the printed parent chain. Numbers in names are those of the source.

B1: H4H2292S (antibody, human IgG4, V domains shown)
VH: EVQLVESGGGVVQPGRSLRLSCAASGFTFSSYGMHWVRQAPGKGLEWVSFIWYDGSNKYYADSVKGRFTISRDNSKNTLYLQMNSLTAEDTAVYYCARRGILTGTTAFDIWGQGTMVTVSS
VL: DIQMTQSPSSLSASVGDRVTITCRASQSISSYLNWYQQKPGKAPKLLIYAASSLQSGVPSRFSGSGSGTDFTLTIRSLIPEDFATYYCQQTYNTPFTFGPGTKVEIK
notes: human IgG4 Fc (H4H)
B2: H4H2350P (antibody, human IgG4, V domains shown)
VH: QVQLQESGPGLVKPSETLSLTCTVSGGSISTYYWSWFRQPPGKGLEWIGYIYYSGSTNHNPSLKSRVTISVDTSKNQFSLKLRSVTAADTAVYYCARVGPVGWGSWGNFDYWGQGTLVTVSS
VL: DIQLTQSPSFLSASVGDRVTITCWASQGISSYLAWSQQKPGKAPKLLIYAASTLQSGVPSRFSGSGSGTEFTLTISSLQPEDFATYYCQQLNSYPWTFGQGTKVEIK
notes: human IgG4 Fc (H4H)
B3: H4H2212N (antibody, human IgG4, V domains shown)
VH: EVQLLESGGGLVQPGGSLRLSCAASGFTFSSYAMSWVRQGPGKGLEWVSGISGSGGSTYNADSVKGRFTISRDNSKNTLYLQMNSLRAEDTAVYYCAKDSGTYWYYFDYWGQGILVTVSS
VL: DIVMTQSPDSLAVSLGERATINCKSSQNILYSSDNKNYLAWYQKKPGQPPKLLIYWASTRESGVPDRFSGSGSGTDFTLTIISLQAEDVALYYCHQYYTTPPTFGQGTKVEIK
notes: human IgG4 Fc (H4H)
B4: H4H2344S (antibody, human IgG4, V domains shown)
VH: EVQLVESGGGVVQPGRSLRLSCAASGFSFSDYVMHWVRQAPGKGLEWVASIWFDGSNEFYADSVKGRFTISRDNSKNTLFLQMNSLRAEDTAVYYCAKKGVLVATSAFDIWGQGTMVTVSS
VL: DIQMTQSPSSLSASVGDRVTITCRASQSINNYLNWYHQKPGKAPKLLIYAASSLQSGVPSRFSGSGSGTDYTLTISSLQPEDFGNYYCQQSYRTSMYTFGQGTKVEIK
notes: human IgG4 Fc (H4H)
B5: H4H2293P (antibody, human IgG4, V domains shown)
VH: B4 VH with E1Q, F59L, D109H
VL: B4 VL with D1A, S28N, K45N, R93S, V105L
notes: human IgG4 Fc (H4H)
B6: H4H2354S (antibody, human IgG4, V domains shown)
VH: B4 VH with E1Q
VL: B4 VL with M4L
notes: human IgG4 Fc (H4H); also called H4H2354S-1
B7: H4H2346S (antibody, human IgG4, V domains shown)
VH: B4 VH with E1Q
VL: B4 VL with D1E, Q3V
notes: human IgG4 Fc (H4H)
B8: H4H2342P (antibody, human IgG4, V domains shown)
VH: EVQLLESGGGLVQPGGSLRLSCAASGFTFSTYAMSWVRQAPGKGLEWVSAIRGNGVNTYYGDSMKGRFTISRDNSKDTLYLQMNSLRAEDTAVYYCAKNKWELLVFEYWGQGTLVTVSS
VL: DIQMTQSPSSLSASVGDRVTITCRASQDISNYLAWYQQKPGKVPKLLIYAASTLQSGVPFRFSGSGSGTDFTLTISSLQPEDVATYYCQKYNSAPPFGPGTKVDIK
notes: human IgG4 Fc (H4H)
B9: H4H2243N2 (antibody, human IgG4, V domains shown)
VH: QVQLVQSGAEVKKPGASVKVSCKASGYTFTSYGIIWVRQAPGQGLEWMGWISGYNGNTNYAQNLQGRVTMTTDTSTTTAYMELRSLRSDDTAVYYCARWGIATRPYYYYGMDVWGQGTTVTVSS
VL: DIQMTQSPSSLSASVGDRVTITCRASQDITNYLAWFQQKPGKAPKSLIYAASSLQSGVPSKFSGSGSGTDFTLTISSLQPEDFATYYCQQYNSYPPTFGPGTKVDIK
notes: human IgG4 Fc (H4H)
B10: H4H2294S (antibody, human IgG4, V domains shown)
VH: EVQLVESGGGLVQPGGSLRLSCAASGFTFSSYAMSWVRQAPGKGLEWVSVISGSGGSTYYADAVKGRFTISRDNSKHTLYLQMNSLRAEDTAVYYCTKPSSYSSSNFYYGMDVWGQGSTVTVSS
VL: DIQLTQSPSSVSASVGDRVTITCRASQGISSWLAWYQQKPGKAPKLLIYAASSLQSGVPSRFSGSGSGTDFTLTISSLQPEDFATYYCQQTNSFPFPFGPGTKVDIK
notes: human IgG4 Fc (H4H)

Molecular target: T1, human GFRα3 expressed with a C-terminal hFc tag (human)
T1 construct: also called hGFRα3-hFc
Assay: blocking ELISA 1, hGFRα3-hFc to coated hARTEMIN-mmH
Method: A constant amount of human GFRα3 fused with a C-terminal human Fc tag (hGFRα3-hFc; SEQ ID:371) at 120 pM was pre-mixed with varying amounts of antibodies, ranging from 0 to ˜10 nM in serial dilutions, followed by an 1 hour incubation at room temperature (RT) to allow antibody-hGFRα3-hFc binding to reach equilibrium. The equilibrated sample solutions were then transferred to the hARTEMIN-mmH-coated plate. […] Absorbance was recorded at 450 nm on a Victor X5 plate reader (Perkin Elmer) to determine the amount of free hGFRα3-hFc in the pre-equilibrated hGFRα3-hFc-antibody solutions that was able to bind to the plate coated with hARTEMIN-mmH. IC₅₀ values, defined as the concentration of antibody required to reduce the signal from a constant concentration of hGFRα3-hFc by 50%, were calculated from the data using Prism software from GraphPad. The absorbance measured at the constant amount of 120 pM hGFRα3-hFc in the absence of anti-GFRα3 antibody is defined as 0% blocking and the absorbance with no added hGFRα3-hFc is defined as 100% blocking. The observed absorbance in the wells containing the highest antibody concentration was used to calculate the maximum blocking percent shown in the table.

T1 sequence (chain, as listed by the source limits assumed): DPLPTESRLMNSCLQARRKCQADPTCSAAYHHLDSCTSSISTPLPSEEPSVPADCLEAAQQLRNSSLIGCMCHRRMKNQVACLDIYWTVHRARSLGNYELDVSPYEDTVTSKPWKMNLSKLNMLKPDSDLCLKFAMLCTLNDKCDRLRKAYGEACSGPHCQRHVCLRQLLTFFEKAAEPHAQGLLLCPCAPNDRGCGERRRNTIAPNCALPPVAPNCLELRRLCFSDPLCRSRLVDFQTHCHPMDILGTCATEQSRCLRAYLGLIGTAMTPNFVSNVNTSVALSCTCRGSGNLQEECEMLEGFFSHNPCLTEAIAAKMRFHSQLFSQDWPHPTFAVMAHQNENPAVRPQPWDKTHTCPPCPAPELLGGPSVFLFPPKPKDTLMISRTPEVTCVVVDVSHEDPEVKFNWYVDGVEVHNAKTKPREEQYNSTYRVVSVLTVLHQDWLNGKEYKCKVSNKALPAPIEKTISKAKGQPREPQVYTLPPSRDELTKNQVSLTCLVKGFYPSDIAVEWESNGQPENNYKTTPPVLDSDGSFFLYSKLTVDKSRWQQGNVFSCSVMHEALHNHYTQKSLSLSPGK

Row | Binder | % max blocking [%] | IC50 [nM]
1 | B1 | 89 | 0.723
2 | B2 | 93 | 0.496
3 | B3 | 81 | 0.0438
4 | B4 | 94 | 0.133
5 | B5 | 93 | 0.26
6 | B6 | 92 | 0.116
7 | B7 | 92 | 0.0978

Molecular target: T2, human GFRα1 expressed with only a C-terminal human Fc tag (human)
T2 construct: also called hGFRα1-hFc
Assay: BLI Octet, antigen captured on anti-hFc tips
Method: (§1) The ability of anti-GFRα3 antibodies to bind to GDNF-family receptors was assessed using an Octet Red biosensor (Fortebio, Inc.). Antibodies were tested for binding to either human GFRα1 expressed with a C-terminal human Fc tag and a hexahistidine tag (hGFRα1-hFc-6His, R&D Systems #714-GR), human GFRα1 expressed with only a C-terminal human Fc tag (hGFRα1-hFc; SEQ ID: 376), human GFRα2 expressed with a C-terminal human Fc tag and a hexahistidine tag (hGFRα2-hFc-6His, R&D Systems #613-FR), human GFRα3 expressed with a C-terminal human Fc tag (hGFRα3-hFc, SEQ ID:371), or an irrelevant human Fc tagged protein. Antigens were captured onto anti-human Fc sensor tips from 10 ug/mL solutions for 5 minutes. The coated sensor tips were then blocked with a 100 ug/mL solution of irrelevant human Fc antibodies for 5 minutes. Blocked sensor tips were then submerged into wells containing […] of each anti-GFRα3 antibody or buffer alone for 10 minutes. The experiment was performed at 25° C. with a flow rate of 1000 rpm using HBST+BSA buffer (10 mM HEPES, 150 mM NaCl, 3 mM EDTA, 0.05% w/v Surfactant P20, 0.1 mg/mL BSA, pH 7.4). The binding response (measured in units of nm) at each step of the experiment was monitored and recorded.

Row | Binder | binding result
8 | B8 | no binding (tested: 100 ug/mL)
9 | B1 | no binding (tested: 100 ug/mL)
10 | B9 | no binding (tested: 100 ug/mL)
11 | B10 | no binding (tested: 100 ug/mL)
12 | B3 | no binding (tested: 100 ug/mL)

Molecular target: T3, human GFRα2 expressed with a C-terminal human Fc tag and a hexahistidine tag (human, UniProt O00451 22-441, limits assumed)
T3 construct: bought protein; also called hGFRα2-hFc-6His; hGFRα2-hFc-6his
T3 sequence (looked up): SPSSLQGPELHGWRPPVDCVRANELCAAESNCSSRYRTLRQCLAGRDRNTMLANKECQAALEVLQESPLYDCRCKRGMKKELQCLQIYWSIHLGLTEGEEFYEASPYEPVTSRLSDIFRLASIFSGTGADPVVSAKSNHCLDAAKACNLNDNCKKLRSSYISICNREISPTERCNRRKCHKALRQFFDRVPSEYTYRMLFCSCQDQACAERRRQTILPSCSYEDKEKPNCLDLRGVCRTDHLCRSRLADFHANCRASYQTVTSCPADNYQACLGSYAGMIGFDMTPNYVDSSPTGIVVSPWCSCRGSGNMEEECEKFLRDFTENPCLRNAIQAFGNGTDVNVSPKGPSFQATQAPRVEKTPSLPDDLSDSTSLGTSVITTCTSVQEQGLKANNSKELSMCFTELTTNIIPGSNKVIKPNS
Assay: BLI Octet, antigen captured on anti-hFc tips
Method: as §1

Row | Binder | binding result
13 | B8 | no binding (tested: 100 ug/mL)
14 | B1 | no binding (tested: 100 ug/mL)
15 | B9 | no binding (tested: 100 ug/mL)
16 | B10 | no binding (tested: 100 ug/mL)
17 | B3 | no binding (tested: 100 ug/mL)

Molecular target: T2, human GFRα1 expressed with only a …
Assay: BLI Octet, antigen on anti-hFc tips, 100 ug/mL Ab
Method: as §1

Row | Binder | Bound (nm)
18 | B8 | 0.06
19 | B1 | 0.05
20 | B9 | 0.03
21 | B10 | 0.04
22 | B3 | 0

Molecular target: T4, human GFRα1 expressed with a C-terminal human Fc tag and a hexahistidine tag (human, UniProt P56159 25-429, limits assumed)
T4 construct: bought protein; also called hGFRα1-hFc-6His; hGFRα1-hFc-6his
T4 sequence (looked up): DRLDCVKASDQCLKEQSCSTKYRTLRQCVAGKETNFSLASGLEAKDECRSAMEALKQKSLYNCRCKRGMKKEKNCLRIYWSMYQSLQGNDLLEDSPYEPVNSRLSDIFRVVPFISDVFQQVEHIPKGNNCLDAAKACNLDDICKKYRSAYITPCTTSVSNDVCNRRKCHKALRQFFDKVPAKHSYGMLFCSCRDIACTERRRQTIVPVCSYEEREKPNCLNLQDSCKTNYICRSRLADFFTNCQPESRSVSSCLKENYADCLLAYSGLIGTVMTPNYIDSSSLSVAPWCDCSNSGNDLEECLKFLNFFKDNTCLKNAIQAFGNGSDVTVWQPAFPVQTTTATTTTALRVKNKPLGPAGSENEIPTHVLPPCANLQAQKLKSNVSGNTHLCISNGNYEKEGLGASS
Assay: BLI Octet, antigen on anti-hFc tips, 100 ug/mL Ab
Method: as §1

Row | Binder | Bound (nm)
23 | B8 | 0.08
24 | B1 | 0.03
25 | B9 | 0.03
26 | B10 | 0.03
27 | B3 | -0.01

Molecular target: T5, irrelevant human Fc tagged protein
T5 construct: negative control antigen; also called Irrelevant hFc tagged protein
Assay: BLI Octet, antigen on anti-hFc tips, 100 ug/mL Ab
Method: as §1

Row | Binder | Bound (nm)
28 | B8 | 0.07
29 | B1 | 0.02
30 | B9 | 0.03
31 | B10 | 0.03
32 | B3 | 0

Molecular target: T3, human GFRα2 expressed with a C-terminal …
Assay: BLI Octet, antigen on anti-hFc tips, 100 ug/mL Ab
Method: as §1

Row | Binder | Bound (nm)
33 | B8 | 0.12
34 | B1 | 0.05
35 | B9 | 0.06
36 | B10 | 0.06
37 | B3 | 0.02

Molecular target: T1, human GFRα3 expressed with a C-terminal …
Assay: BLI Octet, antigen on anti-hFc tips, 100 ug/mL Ab
Method: as §1

Row | Binder | Bound (nm)
38 | B8 | 1.59
39 | B1 | 1.04
40 | B9 | 1.11
41 | B10 | 1.17
42 | B3 | 1.18
